Key:
[1] = tested on: His6-tagged Paracoccus zeaxanthinifaciens mevalonate kinase; assay: Feedback inhibition of mevalonate kinase by downstream products of the pathway; format: biochemical; conditions: 138 μM of the inhibitor; wild-type His6-tagged enzyme
Description: (§1) Enzymatic assays for measuring mevalonate kinase activity have been described, e.g., by Popák (Meth. Enzymol. 15, 393-, 1969), Gibson et al. (Enzyme 41, 47-55, 1989), Hinson et al. (J. Lipid Res. 38, 2216-2223, 1997), Schulte et al. (Anal. Biochem. 269, 245-254, 1999), or Cho et al. (J. Biol. Chem. 276, 12573-12578, 2001). For preparing mevalonate as substrate, 130 mg of DL-mevalonate lactone (FLUKA Chemie AG, Buchs, Switzerland) were dissolved in 5.5 ml of 0.2 M KOH and incubated for 15 min at 50° C. The solution was then adjusted to pH 7.0 by addition of 0.1 M HCl at room temperature (RT). Except if stated otherwise (see Example 3), the assay mixture consists of 100 mM K2HPO4/KH2PO4 (pH 7.0), 1 mM ATP, 2 mM MgCl2, 1 mM mevalonate, 0.5 mM phosphoenolpyruvate (PEP), 0.32 mM NADH, 20 U/ml pyruvate kinase and 27 U/ml lactate dehydrogenase (Sigma-Aldrich, St. Louis, Mo., USA). FPP, GGPP, IPP, DMAPP and GPP tested as inhibitors in the assay mixtures (at concentrations of 0-100 μM) were all purchased from Sigma. Upon addition of purified (His6-tagged) mevalonate kinase, enzymatic reaction reflected by consumption of NADH was followed by photometric measurement at 340 nm. One unit (1 U) of mevalonate kinase activity catalyzes the phosphorylation of 1 μmol of mevalonate per min.
(§2) Mevalonate was prepared as described in Example 2. The assay mixture consists of 100 mM K2HPO4/KH2PO4 (pH 7.0), 1 mM ATP, 1 mM mevalonate, 2 mM MgCl2, 0.5 mM phosphoenolpyruvate (PEP), 0.32 mM NADH, 20 U/ml pyruvate kinase and 27 U/ml lactate dehydrogenase (Sigma-Aldrich, St. Louis, Mo., USA). FPP, GGPP, IPP, DMAPP and GPP tested as inhibitors in the assay mixtures were all purchased from Sigma. 92 μM FPP or 17.6 μM GGPP were used for inhibition assays performed with the mevalonate kinase mutants. For the comparison of inhibition by FPP, GGPP, IPP, DMAPP and GPP, 138 μM of these intermediates were added (Example 9). Upon addition of purified (HiS6-tagged) mevalonate kinase, enzymatic reaction reflected by consumption of NADH was followed by photometric measurement at 340 nm.
Different mevalonate kinases were previously reported to be sensitive to feedback inhibition by the following downstream products of the mevalonate pathway: IPP, DMAPP, GPP, FPP, GGPP, phytyl-PP, farnesol, dolichol phosphate.

[2] = tested on: Paracoccus zeaxanthinifaciens mevalonate kinase; assay: Mevalonate kinase activity assay (NADH-coupled photometric assay, specific activity of mutants); format: biochemical; conditions: purified His6-tagged enzyme, 1 mM ATP, 1 mM mevalonate, pH 7.0
Description: as §1, §2

[3] = tested on: Paracoccus zeaxanthinifaciens mevalonate kinase; assay: Feedback resistance of mevalonate kinase mutants to FPP or GGPP; format: biochemical; conditions: feedback inhibitor FPP, 92 μM; relative to wild-type
Description: “Feedback resistance” shall mean any increase in resistance to “feedback inhibition” (as defined above). Feedback resistance can be analyzed in different ways known to those skilled in the art. An appropriate approach shall be described here shortly: mevalonate kinase activity is measured in an activity assay similar to the one described in Example 2 at non-saturating concentrations of ATP (or of another phosphate donor) and mevalonate (or mevalonate analogue), i.e., at ATP (or phosphate donor) and mevalonate (or mevalonate analogue) concentrations around which the reaction rate is sensitive to changes of these substrate concentrations, e.g. at concentrations around the respective Km values of the enzyme under investigation for these substrates. The activities of both wild-type mevalonate kinase and of a variant/mutant of this enzyme are measured under otherwise identical conditions both in the absence and presence of a relevant concentration of a feedback inhibitor, i.e., at a concentration of feedback inhibitor affording significant inhibition of the wild-type mevalonate kinase. […] Feedback resistance (%) is calculated as follows: if a and b are the measured mevalonate kinase activities of the wild-type enzyme in the absence and presence, respectively, of the feedback inhibitor (e.g., FPP), and if c and d are the measured mevalonate kinase activities of the mutant enzyme in the absence and presence, respectively, of the same feedback inhibitor, then % feedback resistance is: % resistance=100·((d/c)−(b/a))/(1−(b/a)) […]
Feedback resistance (%) is calculated as follows: if a and b are the measured mevalonate kinase activities of the wild-type enzyme in the absence and presence, respectively, of the feedback inhibitor (in this case, FPP), and if c and d are the measured mevalonate kinase activities of the mutant enzyme in the absence and presence, respectively, of the same feedback inhibitor, then % feedback resistance is: % resistance=100·((d/c)−(b/a))/(1−(b/a))

[4] = pH 8

Molecule | Inhibition of mevalonate kinase activity [1] | Specific activity (% of wild-type) [2] | Feedback resistance (%) [3] | Solubility / tendency to aggregate [4]
CC(C)=CCOP(=O)(O)OP(=O)(O)O [DMAPP, 3,3-dimethylallyl diphosphate] | 14.7% |  |  | 
CC(C)=CCC/C(C)=C/COP(=O)(O)OP(=O)(O)O [GPP, geranyl diphosphate] | 18.6% |  |  | 
C=C(C)CCOP(=O)(O)OP(=O)(O)O [IPP, isopentenyl diphosphate] | 16.3% |  |  | 
CC(C)=CCC/C(C)=C/CC/C(C)=C/CC/C(C)=C/COP(=O)(O)OP(=O)(O)O [GGPP, geranylgeranyl diphosphate] | 98% |  |  | 
WT: wild-type His6-tagged mevalonate kinase of Paracoccus zeaxanthinifaciens, SEQ ID NO:15 (protein, His6 tag; His6-Paracoccus zeaxanthinifaciens) MRGSHHHHHHSTGRPEAGAHAPGKLILSGEHSVLYGAPALAMAIARYTEVWFTPLGIGEGIRTTFANLSGGATYSLKLLSGFKSRLDRRFEQFLNGDLKVHKVLTHPDDLAVYALASLLHDKPPGTAAMPGIGAMHHLPRPGELGSRTELPIGAGMGSSAAIVAATTVLFETLLDRPKTPEQRFDRVRFCERLKHGKAGPIDAASVVRGGLVRVGGNGPGSISSFDLPEDHDLVAGRGWYWVLHGRPVSGTGECVSAVAAAHGRDAALWDAFAVCTRALEAALLSGGSPDAAITENQRLLERIGVVPAATQALVAQIEEAGGAAKICGAGSVRGDHGGAVLVRIDDAQAMASVMARHPDLDWAPLRMSRTGAAPGPAPRAQPLPGQG |  | 100 % of wild-type | 0% | pronounced tendency to aggregate/precipitate
G47D (protein, listed as Paracoccus zeaxanthinifaciens) MSTGRPEAGAHAPGKLILSGEHSVLYGAPALAMAIARYTEVWFTPLDIGEGIRTTFANLSGGATYSLKLLSGFKSRLDRRFEQFLNGDLKVHKVLTHPDDLAVYALASLLHDKPPGTAAMPGIGAMHHLPRPGELGSRTELPIGAGMGSSAAIVAATTVLFETLLDRPKTPEQRFDRVRFCERLKHGKAGPIDAASVVRGGLVRVGGNGPGSISSFDLPEDHDLVAGRGWYWVLHGRPVSGTGECVSAVAAAHGRDAALWDAFAVCTRALEAALLSGGSPDAAITENQRLLERIGVVPAATQALVAQIEEAGGAAKICGAGSVRGDHGGAVLVRIDDAQAMASVMARHPDLDWAPLRMSRTGAAPGPAPRAQPLPGQG |  | 121 % of wild-type | 32% | 
K93E (protein, listed as Paracoccus zeaxanthinifaciens) MSTGRPEAGAHAPGKLILSGEHSVLYGAPALAMAIARYTEVWFTPLGIGEGIRTTFANLSGGATYSLKLLSGFKSRLDRRFEQFLNGDLKVHEVLTHPDDLAVYALASLLHDKPPGTAAMPGIGAMHHLPRPGELGSRTELPIGAGMGSSAAIVAATTVLFETLLDRPKTPEQRFDRVRFCERLKHGKAGPIDAASVVRGGLVRVGGNGPGSISSFDLPEDHDLVAGRGWYWVLHGRPVSGTGECVSAVAAAHGRDAALWDAFAVCTRALEAALLSGGSPDAAITENQRLLERIGVVPAATQALVAQIEEAGGAAKICGAGSVRGDHGGAVLVRIDDAQAMASVMARHPDLDWAPLRMSRTGAAPGPAPRAQPLPGQG |  | 109 % of wild-type | 33% | 
